{"source": "patent US20260001937A1", "about": "“NOVEL RECOMBINANT FIBRINOGEN VARIANTS FOR FIBRIN SEALANTS FOR SURGICAL WOUND CARE” (Julius-Maximilians-Universität Würzburg, priority 2022, published 2026)", "molecules": {"B1": {"name": "factor XIIIa (Fibrogammin, CSL Behring) (protein)", "chain": "GVNLQEFLNVTSVHLFKERWDTNKVDHHTDKYENNKLIVRRGQSFYVQIDFSRPYDPRRDLFRVEYVIGRYPQENKGTYIPVPIVSELQSGKWGAKIVMREDRSVRLSIQSSPKCIVGKFRMYVAVWTPYGVLRTSRNPETDTYILFNPWCEDDAVYLDNEKEREEYVLNDIGVIFYGEVNDIKTRSWSYGQFEDGILDTCLYVMDRAQMDLSGRGNPIKVSRVGSAMVNAKDDEGVLVGSWDNIYAYGVPPSAWTGSVDILLEYRSSENPVRYGQCWVFAGVFNTFLRCLGIPARIVTNYFSAHDNDANLQMDIFLEEDGNVNSKLTKDSVWNYHCWNEAWMTRPDLPVGFGGWQAVDSTPQENSDGMYRCGPASVQAIKHGHVCFQFDAPFVFAEVNSDLIYITAKKDGTHVVENVDATHIGKLIVTKQIGGDGMMDITDTYKFQEGQEEERLALETALMYGAKKPLNTEGVMKSRSNVDMDFEVENAVLGKDFKLSITFRNNSHNRYTITAYLSANITFYTGVPKAEFKKETFDVTLEPLSFKKEAVLIQAGEYMGQLLEQASLHFFVTARINETRDVLAKQKSTVLTIPEIIIKVRGTQVVGSDMTVTVEFTNPLKETLRNVWVHLDGPGVTRPMKKMFREIRPNSTVQWEEVCRPWVSGHRKLIASMSSDSLRHVYGELDVQIQRRPSM"}}, "key": {"[1]": {"system": "ExpiCHO-S cell supernatant (degradation of fibrinogen α-chain)", "experiment": "Screening of inhibitors for Fbg degradation in ExpiCHO-S cell supernatant (SDS-PAGE)", "assay_type": "biochemical, Chinese hamster", "details": "commercial human Fbg 3.3 mg/mL, 37 C, several days, Aprotinin 50 μg/mL, EDTA 4 mM, 1,10 Phenanthroline 1 mM, UK 370106 100 μM", "protocol": "ExpiCHO-S cells were cultured to a density of 6×10^6 cells/mL. Afterwards, cells were centrifuged for 4 min at 1000 rpm at RT and the supernatant was collected. Commercially available fibrinogen (SigmaAldrich) was mixed with the supernatant to a final concentration of 3.3 mg/mL and a volume of 200 μl. The mixture incubated at 37° C. and 750 rpm and samples were taken at 0, 24 and 48 h. For the screening the different inhibitors were added to the mixture (final concentrations: PMSF: 1 mM; Aprotinin: 50 μg/mL; GM6001: 25 μM; EDTA: 4 mM; 1,10 Phenanthroline: 1 mM; UK 370106: 100 μM). As control fibrinogen was incubated in 10 mM Tris/HCl, 150 mM NaCl (pH 7.5) under the same conditions. For the visualization of fibrinogen degradation, 20 μL of the mixtures were analyzed using SDS-PAGE.\nCommercially available human Fbg was incubated with the supernatant taken from the CHO cells used for the expression and incubated the protein at 37 C for several days."}, "[2]": {"molecular_target": "T1, human plasmin (Homo sapiens, UniProt P00747)", "T1 construct": "Active plasmin is a serine protease that is derived from its zymogen plasminogen; purchased Merck", "T1 sequence (P00747 97-580 limits assumed)": "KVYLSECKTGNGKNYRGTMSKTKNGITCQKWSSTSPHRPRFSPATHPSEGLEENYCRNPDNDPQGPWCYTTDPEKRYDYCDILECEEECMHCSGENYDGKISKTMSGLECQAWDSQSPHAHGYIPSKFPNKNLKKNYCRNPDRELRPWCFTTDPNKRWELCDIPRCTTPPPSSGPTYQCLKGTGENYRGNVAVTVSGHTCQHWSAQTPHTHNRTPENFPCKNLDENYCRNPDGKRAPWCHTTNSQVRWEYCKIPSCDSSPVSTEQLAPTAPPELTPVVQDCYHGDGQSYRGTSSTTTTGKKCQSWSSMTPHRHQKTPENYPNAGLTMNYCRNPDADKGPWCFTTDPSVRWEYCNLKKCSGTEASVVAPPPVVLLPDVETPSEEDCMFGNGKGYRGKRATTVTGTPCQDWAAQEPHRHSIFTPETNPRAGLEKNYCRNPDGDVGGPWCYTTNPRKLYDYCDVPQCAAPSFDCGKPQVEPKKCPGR", "T1 sequence (P00747 581-810 limits assumed)": "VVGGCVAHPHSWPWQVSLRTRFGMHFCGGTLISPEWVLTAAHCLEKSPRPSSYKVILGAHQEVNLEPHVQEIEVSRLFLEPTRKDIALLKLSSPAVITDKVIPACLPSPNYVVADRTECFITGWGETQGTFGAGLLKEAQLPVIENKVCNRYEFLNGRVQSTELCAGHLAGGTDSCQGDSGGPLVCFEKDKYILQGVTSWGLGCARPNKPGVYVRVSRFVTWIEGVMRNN", "experiment": "Plasmin digest in solution of Fbg and rFbg variants, high-resolution ESI-MS of γ-chain cleavage sites", "assay_type": "biochemical", "details": "for plasmin cleavage at the 4 sites K88, K111, K382, K399 of the γ-chain: fibrinogen solution 1 mg/mL, plasmin 0.5 U/mL, 24 h, 37° C., high-resolution ESI-MS; for plasmin cleavage at position 382 of the γ-chain (FIG. 5): peptide fragments after plasmin and additional ProAlanase cleavage, both cleaved and non-cleaved peptides detected", "protocol": "In order to analyze plasmin digestion of mutated restriction sites, 100 μL of human plasmin (Merck) (0.5 U/mL) were added to 100 μg of Fbg and rFbg (Ala and His) and incubated for 24 h at 37° C. and 130 rpm in order to ensure complete cleavage. Afterwards, samples were stored at −80° C. For the analysis of the time-dependent cleavage site determination and quantification of plasmin, fibrin gels (20 mg/mL) were incubated with different plasmin concentrations ranging from 0.005 mU/mL-0.5 U/mL. Samples were taken at different timepoints from 1 min to 24 h. PMSF (1 mM) was added to the sample and heated at 95° C. for 10 minutes to ensure plasmin inactivation. Samples were stored at −80° C.\nProteins were digested either with plasmin alone (vide supra) or with plasmin and ProAlanase (ProAla) (Promega) with slight differences in handling. For all digests, all samples (WT/HIS/ALA) were brought to a concentration of 0.2 μg/μL in 50 mM tris buffer. For “plasmin only” samples were immediately purified (see below). For ProAla (Promega), 50 μL of 8M Guanidinium Hydrochloride were added to 10 μg (50 μL) of protein stock solution and briefly heated to ensure denaturation. To enable specific ProAla digest the solution was acidified using 900 μL of 32 mM HCl. After pH was checked to be in the range of 1-1.5, ProAla was added (1:50 ProAla:Protein; […]), proteolysis was allowed to continue for 2.5 h. Afterwards, pH was set to slightly basic by addition of 0.5-1 mL of 2 M Tris buffer. In the next step, the samples were immediately purified.\nPrecursor Tolerance of 15 ppm, fragment mass tolerance of 20 ppm, digestion C-terminal of K (non-specific), modifications are concurrent with the PMI-Byos recommendations for sequence variant analysis workflows (two rare and common modifications allowed).\nPrecursor Tolerance of 15 ppm, fragment mass tolerance of 20 ppm, digestion C-terminal of A and P (non-specific), modifications are concurrent with the PMI-Byos recommendations for sequence variant analysis workflows (two rare and common modifications allowed).\nThe α-chain plays an important part in the gelation process of fibrin. Due to the truncated α-chain gel formation with rFbg was not possible, as the production of intact complex (compare above) was still ongoing. Therefore, plasmin digests in solution with WT as well as both Ala- and His-rFbg mutants was performed to investigate if the inserted mutations are limiting proteolytic efficiency of plasmin at the respective cleavage sites. Plasmin was added to the fibrinogen solution (1 mg/mL) to a final concentration of 0.5 U/mL and the mixture was incubated for 24 h to ensure complete cleavage of fibrinogen. […] At some positions both cleaved and non-cleaved peptides were detected, however no cleavage did contain a mutation. This might be due to residual WT-Fbg peptides either on the column (carryover) or through residual WT-Fbg at any point in the workup."}, "[3]": {"system": "ExpiCHO-S cells", "details": "literature report (ref. 51); cited from earlier work"}, "[4]": {"system": "His-rFbgH433R435"}, "[5]": {"molecular_target": "T2, His-rFbgH433R435", "T2 chain 1": "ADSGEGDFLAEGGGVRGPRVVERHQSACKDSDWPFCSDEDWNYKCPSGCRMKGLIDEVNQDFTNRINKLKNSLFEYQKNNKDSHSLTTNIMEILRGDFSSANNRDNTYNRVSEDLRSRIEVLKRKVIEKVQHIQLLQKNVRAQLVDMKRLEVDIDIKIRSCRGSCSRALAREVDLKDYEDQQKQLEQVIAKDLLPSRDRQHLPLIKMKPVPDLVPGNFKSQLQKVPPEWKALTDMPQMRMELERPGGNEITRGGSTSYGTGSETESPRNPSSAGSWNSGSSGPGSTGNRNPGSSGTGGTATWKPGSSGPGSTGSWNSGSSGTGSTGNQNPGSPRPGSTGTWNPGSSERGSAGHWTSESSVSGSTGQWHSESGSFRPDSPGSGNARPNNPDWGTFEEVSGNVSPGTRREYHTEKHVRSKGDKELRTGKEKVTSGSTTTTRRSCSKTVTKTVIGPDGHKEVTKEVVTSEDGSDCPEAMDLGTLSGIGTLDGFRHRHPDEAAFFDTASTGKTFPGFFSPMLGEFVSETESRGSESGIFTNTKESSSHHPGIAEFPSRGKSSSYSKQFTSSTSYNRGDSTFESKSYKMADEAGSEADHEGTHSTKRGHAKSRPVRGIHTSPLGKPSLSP", "T2 chain 2": "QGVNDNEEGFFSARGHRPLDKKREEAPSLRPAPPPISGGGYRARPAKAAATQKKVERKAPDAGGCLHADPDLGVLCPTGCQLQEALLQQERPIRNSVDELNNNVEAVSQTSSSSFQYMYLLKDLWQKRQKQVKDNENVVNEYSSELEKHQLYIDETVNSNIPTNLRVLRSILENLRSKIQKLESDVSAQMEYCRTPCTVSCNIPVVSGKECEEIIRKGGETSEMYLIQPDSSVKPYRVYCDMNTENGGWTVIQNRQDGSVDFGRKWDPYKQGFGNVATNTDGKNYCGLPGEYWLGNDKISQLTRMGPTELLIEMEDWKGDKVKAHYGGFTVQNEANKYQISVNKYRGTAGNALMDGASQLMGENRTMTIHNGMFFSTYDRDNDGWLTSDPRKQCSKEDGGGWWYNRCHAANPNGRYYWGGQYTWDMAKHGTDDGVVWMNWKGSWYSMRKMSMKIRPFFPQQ", "T2 chain 3": "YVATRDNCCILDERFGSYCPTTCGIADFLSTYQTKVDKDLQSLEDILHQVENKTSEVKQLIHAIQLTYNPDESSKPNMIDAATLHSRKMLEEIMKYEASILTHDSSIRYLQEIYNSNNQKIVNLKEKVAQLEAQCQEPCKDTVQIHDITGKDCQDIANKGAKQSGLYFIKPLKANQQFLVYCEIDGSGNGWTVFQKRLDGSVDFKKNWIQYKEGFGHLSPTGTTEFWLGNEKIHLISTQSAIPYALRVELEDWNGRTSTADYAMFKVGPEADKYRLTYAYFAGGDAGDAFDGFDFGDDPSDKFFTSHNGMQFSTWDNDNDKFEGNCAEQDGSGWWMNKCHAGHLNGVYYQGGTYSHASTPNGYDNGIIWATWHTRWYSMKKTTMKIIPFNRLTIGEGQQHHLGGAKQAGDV"}}, "data": [{"molecule": "c1cnc2c(c1)ccc1cccnc12", "note": "[1,10 Phenantroline, 1,10 Phenanthroline]", "values": [{"measurement": "state of the Fbg α-chain after incubation with CHO cell supernatant plus inhibitor", "setting": "[1]", "value": "intact α-chain was detected"}]}, {"molecule": "O=C(O)CN(CCN(CC(=O)O)CC(=O)O)CC(=O)O", "note": "[EDTA]", "values": [{"measurement": "state of the Fbg α-chain after incubation with CHO cell supernatant plus inhibitor", "setting": "[1]", "value": "intact α-chain was detected"}]}, {"molecule": "COC[C@@H](NC(=O)[C@@H](NC(=O)[C@H](CCCc1ccc(-c2ccccc2)c(C)c1)CC(=O)O)C(C)(C)C)c1ccccc1", "note": "[UK 370106, (βR)-β-[[[(1 S)-1-[[[(1 S)-2-Methoxy-1-phenylethyl]amino]carbonyl]-2,2-dimethylpropyl]amino]carbonyl]-2-methyl-[1,1′-biphenyl]-4-hexanoic acid]", "values": [{"measurement": "state of the Fbg α-chain after incubation with CHO cell supernatant plus inhibitor", "setting": "[1]", "value": "intact α-chain was detected"}]}, {"molecule": "Ala-rFbg: recombinant fibrinogen of Aα-, Bβ- and γ-chain with γ-chain K88A, K111A, K382A, K399A", "values": [{"measurement": "plasmin cleavage at the 4 sites K88, K111, K382, K399 of the γ-chain", "setting": "[2]", "value": "no cleavage was detected"}, {"measurement": "plasmin cleavage at position 382 of the γ-chain (FIG. 5)", "setting": "[2]", "value": "partial cleavage"}]}, {"molecule": "His-rFbg: recombinant fibrinogen of Aα-, Bβ- and γ-chain with γ-chain K88H, K111H, K382H, K399H", "values": [{"measurement": "plasmin cleavage at the 4 sites K88, K111, K382, K399 of the γ-chain", "setting": "[2]", "value": "no cleavage was detected"}, {"measurement": "plasmin cleavage at position 382 of the γ-chain (FIG. 5)", "setting": "[2]", "value": "partial cleavage"}]}, {"molecule": "WT: commercially available human fibrinogen (SigmaAldrich), wild type, used as control [reference compound]", "values": [{"measurement": "plasmin cleavage at the 4 sites K88, K111, K382, K399 of the γ-chain", "setting": "[2]", "value": "could be detected"}]}, {"molecule": "aprotinin", "values": [{"measurement": "state of the Fbg α-chain after incubation with CHO cell supernatant plus inhibitor", "setting": "[1]", "value": "truncated α-chain is also visible"}, {"measurement": "effect of inhibitor addition during CHO cell expression on proteolytic degradation of the fibrinogen α-chain", "setting": "[3]", "value": "did inhibit proteolytic degradation"}]}, {"molecule": "thrombin", "values": [{"measurement": "thrombin-catalyzed fibrin polymerization, turbidity at 350 nm", "setting": "[4]", "value": "thrombin-induced fibrin polymerization of His-rFbgH433R435 was slightly reduced compared with control (pFbg), with a similar lag time and comparable absorption"}]}, {"molecule": "B1", "values": [{"measurement": "FXIIIa-catalyzed cross-linking of gamma-chains, reducing SDS-PAGE", "setting": "[5]", "value": "the cross-linked γ-γ-dimer bands of rFbgH433R435 were visible after 5 min, indicating rapid lateral linkage"}]}]}
